According to patent US20200157212A1 (Pfizer, published 2020):
Numbering of substitutions follows the chain as printed.

T1: Human ROBO2 Ig1-Ig2-His (human, UniProt Q9HCK4 31-220)
T1 construct: the His tag is named only in the SPR paragraphs; the Octet and ELISA paragraphs print 'ROBO2 Ig1-Ig2' without a tag; also called ROBO2 Ig1-2; Human ROBO2 Ig 1,2
T1 sequence: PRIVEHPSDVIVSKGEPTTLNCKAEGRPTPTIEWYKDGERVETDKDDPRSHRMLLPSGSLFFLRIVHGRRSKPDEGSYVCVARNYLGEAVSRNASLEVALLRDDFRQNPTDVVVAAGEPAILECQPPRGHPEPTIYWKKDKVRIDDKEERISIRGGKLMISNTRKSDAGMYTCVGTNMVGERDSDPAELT

T2: Terbium (Tb) labeled-SNAP tagged ROBO2 expressed on HEK293 cells (Homo sapiens (Human), UniProt Q9HCK4 22-1378, terbium label on the SNAP tag)
T2 construct: also called Tb-labeled ROBO2 cells; ROBO2 expressing cells; not shown: SNAP tag
T2 sequence: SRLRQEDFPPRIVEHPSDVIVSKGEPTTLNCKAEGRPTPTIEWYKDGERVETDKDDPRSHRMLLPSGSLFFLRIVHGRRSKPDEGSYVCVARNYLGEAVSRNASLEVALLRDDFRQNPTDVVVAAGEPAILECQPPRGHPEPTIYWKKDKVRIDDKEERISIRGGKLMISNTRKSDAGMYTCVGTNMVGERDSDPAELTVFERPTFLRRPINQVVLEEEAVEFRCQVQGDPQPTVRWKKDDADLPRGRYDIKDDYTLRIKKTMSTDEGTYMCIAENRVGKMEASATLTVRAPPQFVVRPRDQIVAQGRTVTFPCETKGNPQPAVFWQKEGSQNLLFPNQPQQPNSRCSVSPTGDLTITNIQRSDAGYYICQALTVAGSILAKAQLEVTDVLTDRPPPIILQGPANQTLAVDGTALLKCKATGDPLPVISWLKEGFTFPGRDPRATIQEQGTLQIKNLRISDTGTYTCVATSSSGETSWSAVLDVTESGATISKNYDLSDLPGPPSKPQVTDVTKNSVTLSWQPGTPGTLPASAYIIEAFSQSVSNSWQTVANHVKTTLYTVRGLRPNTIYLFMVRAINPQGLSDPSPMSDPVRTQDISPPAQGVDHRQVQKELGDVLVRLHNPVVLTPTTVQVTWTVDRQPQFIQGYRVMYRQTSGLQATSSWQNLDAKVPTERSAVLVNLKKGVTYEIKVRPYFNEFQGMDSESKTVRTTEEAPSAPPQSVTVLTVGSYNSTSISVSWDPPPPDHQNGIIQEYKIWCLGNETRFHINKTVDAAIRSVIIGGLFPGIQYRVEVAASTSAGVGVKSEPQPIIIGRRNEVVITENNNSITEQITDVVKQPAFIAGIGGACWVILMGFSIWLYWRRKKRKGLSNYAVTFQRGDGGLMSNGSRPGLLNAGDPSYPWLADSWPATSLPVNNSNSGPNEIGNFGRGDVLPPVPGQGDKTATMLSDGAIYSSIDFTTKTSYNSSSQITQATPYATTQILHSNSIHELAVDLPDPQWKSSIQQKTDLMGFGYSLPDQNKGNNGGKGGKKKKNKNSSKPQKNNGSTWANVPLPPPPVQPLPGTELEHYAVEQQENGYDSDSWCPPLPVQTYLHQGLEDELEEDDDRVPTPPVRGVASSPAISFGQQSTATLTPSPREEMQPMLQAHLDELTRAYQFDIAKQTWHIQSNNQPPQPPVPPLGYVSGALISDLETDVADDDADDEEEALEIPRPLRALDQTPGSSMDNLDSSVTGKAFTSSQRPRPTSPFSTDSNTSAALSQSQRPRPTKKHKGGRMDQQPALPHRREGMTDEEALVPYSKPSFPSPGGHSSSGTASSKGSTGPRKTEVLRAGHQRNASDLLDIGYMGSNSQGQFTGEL

B1: Abcs35-F (antibody, human IgG1, kappa)
heavy: QVQLVQSGAEVKKPGASVKVSCKASGYTFTGYYMHWVRQAPGQGLEWMGWINPKNGDTEFPQKFQGRVTMTRDTSISTAYMDLSRLRSDDTAVYYCARESGDDAFDIWGQGTMVTVSSASTKGPSVFPLAPSSKSTSGGTAALGCLVKDYFPEPVTVSWNSGALTSGVHTFPAVLQSSGLYSLSSVVTVPSSSLGTQTYICNVNHKPSNTKVDKKVEPKSCDKTHTCPPCPAPEAAGAPSVFLFPPKPKDTLMISRTPEVTCVVVDVSHEDPEVKFNWYVDGVEVHNAKTKPREEQYNSTYRVVSVLTVLHQDWLNGKEYKCKVSNKALPAPIEKTISKAKGQPREPQVYTLPPSREEMTKNQVSLTCLVKGFYPSDIAVEWESNGQPENNYKTTPPVLDSDGSFFLYSKLTVDKSRWQQGNVFSCSVMHEALHNHYTQKSLSLSPGK
light: DIVMTQSPSSLSASVGDRVTITCRASQSISSYLNWYQQKPGKAPKLLIYAASSLQSGVPSRFSGSGSGTDFTLTISSLQPEDFATYYCQQSVGLFFGGGTKVEIKRTVAAPSVFIFPPSDEQLKSGTASVVCLLNNFYPREAKVQWKVDNALQSGNSQESVTEQDSKDSTYSLSSTLTLSKADYEKHKVYACEVTHQGLSSPVTKSFNRGEC
notes: germlined variant of Abcs35
B2: Abcs35-I (antibody, human IgG1, kappa)
heavy: B1 heavy with Q1E
light: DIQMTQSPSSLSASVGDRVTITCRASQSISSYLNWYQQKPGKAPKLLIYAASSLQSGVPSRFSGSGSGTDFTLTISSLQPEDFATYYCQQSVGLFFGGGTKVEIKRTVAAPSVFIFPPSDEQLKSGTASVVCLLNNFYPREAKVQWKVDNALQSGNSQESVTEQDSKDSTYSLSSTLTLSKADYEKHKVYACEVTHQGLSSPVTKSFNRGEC
notes: germlined variant of Abcs35
B3: Abcs35-O (antibody, human IgG1, kappa)
heavy: B1 heavy with D82E
light: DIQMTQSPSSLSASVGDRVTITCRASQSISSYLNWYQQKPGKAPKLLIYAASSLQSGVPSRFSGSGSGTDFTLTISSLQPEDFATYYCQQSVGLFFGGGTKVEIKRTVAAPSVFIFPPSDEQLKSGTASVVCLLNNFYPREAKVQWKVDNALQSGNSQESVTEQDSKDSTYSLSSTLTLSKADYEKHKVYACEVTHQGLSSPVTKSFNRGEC
notes: germlined variant of Abcs35
B4: Abcs35-L (antibody, human IgG1, kappa)
heavy: B1 heavy with S77T
light: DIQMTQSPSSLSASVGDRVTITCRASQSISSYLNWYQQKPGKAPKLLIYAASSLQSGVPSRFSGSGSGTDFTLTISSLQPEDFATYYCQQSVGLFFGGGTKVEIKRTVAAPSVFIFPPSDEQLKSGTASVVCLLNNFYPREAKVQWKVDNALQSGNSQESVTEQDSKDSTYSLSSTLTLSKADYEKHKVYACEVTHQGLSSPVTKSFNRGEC
notes: germlined variant of Abcs35
B5: Abcs35-N (antibody, human IgG1, kappa)
heavy: B1 heavy with S77T, D82E
light: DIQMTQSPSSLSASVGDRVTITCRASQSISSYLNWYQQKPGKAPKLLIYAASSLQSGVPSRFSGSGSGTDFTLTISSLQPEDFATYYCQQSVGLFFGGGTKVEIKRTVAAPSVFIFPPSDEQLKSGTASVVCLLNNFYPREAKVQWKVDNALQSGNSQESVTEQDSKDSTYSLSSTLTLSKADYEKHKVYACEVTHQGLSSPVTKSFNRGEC
notes: germlined variant of Abcs35
B6: Abcs35-K (antibody, human IgG1, kappa)
heavy: B1 heavy with Q1E, D82E
light: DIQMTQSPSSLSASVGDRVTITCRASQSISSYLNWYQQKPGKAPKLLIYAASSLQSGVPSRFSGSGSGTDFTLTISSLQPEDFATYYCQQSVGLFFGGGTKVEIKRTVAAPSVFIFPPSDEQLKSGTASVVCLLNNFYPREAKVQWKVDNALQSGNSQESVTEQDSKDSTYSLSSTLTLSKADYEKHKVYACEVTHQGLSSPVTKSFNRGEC
notes: germlined variant of Abcs35
B7: Abcs35-M (antibody, human IgG1, kappa)
heavy: B1 heavy
light: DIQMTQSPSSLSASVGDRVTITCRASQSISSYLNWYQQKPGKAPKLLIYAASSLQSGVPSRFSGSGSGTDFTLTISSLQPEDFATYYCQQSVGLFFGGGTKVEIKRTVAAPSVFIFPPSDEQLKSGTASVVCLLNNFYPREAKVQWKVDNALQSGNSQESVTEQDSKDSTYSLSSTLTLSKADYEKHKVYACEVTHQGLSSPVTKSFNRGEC
notes: germlined variant of Abcs35
B8: Abcs35-H (antibody, human IgG1, kappa)
heavy: B1 heavy with D82E
light: B1 light
notes: germlined variant of Abcs35
B9: Abcs35-G (antibody, human IgG1, kappa)
heavy: B1 heavy with S77T, D82E
light: B1 light
notes: germlined variant of Abcs35

Key:
Human ROBO2 Ig1-Ig2-His = target: T1, Human ROBO2 Ig1-Ig2-His; assay: SPR, antibody on CM5 chip, ROBO2 Ig1-Ig2-His
Procedure: Based upon several criteria, Abcs25 and Abcs35 were selected for further characterization. Using flow cytometry, improvement in the binding EC₅₀ to human ROBO2 relative to the parental 93H2 was evaluated. Starting at 6.7 nM, 11-point, 3-fold dilution series were made for each antibody and used to stain HEK293 overexpressing human ROBO2 as described above for the ROBO2 fold selectivity (Example 2). […] In addition to measuring improved binding to human ROBO2, it was important to ensure that high affinity binding to both cynomolgus monkey ROBO2 and rat ROBO2 was maintained. Using HEK293 cells overexpressing either cynomolgus monkey ROBO2 or rat ROBO2, the relative dose-dependent binding of 93H2, Abcs25 and Abcs35 was evaluated as described above. High affinity binding to both cynomolgus monkey and rat ROBO2 was maintained in Abcs25 and Abcs35 (Table 4). […] Briefly, Abcs35 was immobilized to 300 resonance units (RU) on a CM5 chip. Association of ROBO2 Ig1-Ig2-His (ROBO2) was measured over 5 minutes and dissociation was followed for a period of 10 minutes.
Affinity was measured by standard SPR methods as described in Example 3. Briefly, antibodies were immobilized to a specific measure of resonance units (RU) on a CM5 chip. Association of ROBO2 Ig1-Ig2-His (ROBO2) and dissociation will be followed for a period of time.

[1] = target: T2, Terbium (Tb) labeled-SNAP tagged ROBO2 …; assay: HTRF competition, competitor d2-SLIT2-N, ROBO2 HEK293 cells
Procedure: A ROBO2-SLIT2-N homogenous time resolved fluorescence (HTRF) assay was used to identify antibodies that were capable of blocking SLIT2-N binding to ROBO2. In this assay, terbium (Tb) labeled-SNAP tagged ROBO2 expressing HEK293 cells were incubated with 5 nM d2-labeled SLIT-2N in the presence of 1 nM anti-ROBO2 antibodies for 1 hour. After incubation, fluorescence at 665 nm and 620 nm was measured on an Envision multilabel plate reader. […] Maximal signal was defined as the HTRF ratio of Tb-labeled ROBO2 cells with d2-labeled SLIT2-N in the absence of antibody, the minimum signal was defined as the HTRF ratio of Tb-labeled ROBO2 expressing HEK293 cells only. One nanomolar (nM) parental antibody, 93H2, was unable to block the HTRF assay, therefore this concentration was selected to identify clones with a higher affinity than 93H2 (Table 2, HTRF Ratio column). […] Antibodies derived from chain (Abcs series) or CDR shuffling (CTIR-2 series) were evaluated in 11-point, 5-fold dilution series with a top concentration of 1500 nM (Table 2 HTRF IC₅₀).
Neutralization of SLIT2-N binding to ROBO2 was assessed ROBO2:SLIT2-N homogenous time resolved fluorescence (HTRF) assay as described in Example 2. Briefly the HTRF assay was performed as follows: terbium (Tb) labeled-SNAP tagged ROBO2 expressing HEK293 cells were incubated with d2-labeled SLIT-2N in the presence of anti-ROBO2 antibodies for 1 hour. After incubation, fluorescence at 665 nm and 620 nm was measured on an Envision multi-label plate reader. […] Maximal signal was defined as the HTRF ratio of Tb-labeled ROBO2 cells with d2-labeled SLIT2-N in the absence of antibody, the minimum signal was defined as the HTRF ratio of Tb-labeled ROBO2 expressing HEK293 cells only.

Row | Binder | Kd (Human ROBO2 Ig1-Ig2-His) | IC50 [1]
1 | B1 | 0.194 nM | 0.0766 nM
2 | B2 | 0.145 nM | 0.0745 nM
3 | B3 | 0.217 nM | 0.0624 nM
4 | B4 | 0.149 nM | 0.0796 nM
5 | B5 | 0.146 nM | 0.0903 nM
6 | B6 | 0.142 nM | 0.0752 nM
7 | B7 | 0.217 nM | 0.0591 nM
8 | B8 | 0.194 nM | 0.0829 nM
9 | B9 | 0.131 nM | 0.0754 nM
